Source: patent US6051217, “Therapeutic uses of interleukin-3 (IL-3) multiple mutation polypeptides” (G. D. Searle & Co., dated 2000)

T1: hIL-3 receptor (human, UniProt P26951)
T1 sequence: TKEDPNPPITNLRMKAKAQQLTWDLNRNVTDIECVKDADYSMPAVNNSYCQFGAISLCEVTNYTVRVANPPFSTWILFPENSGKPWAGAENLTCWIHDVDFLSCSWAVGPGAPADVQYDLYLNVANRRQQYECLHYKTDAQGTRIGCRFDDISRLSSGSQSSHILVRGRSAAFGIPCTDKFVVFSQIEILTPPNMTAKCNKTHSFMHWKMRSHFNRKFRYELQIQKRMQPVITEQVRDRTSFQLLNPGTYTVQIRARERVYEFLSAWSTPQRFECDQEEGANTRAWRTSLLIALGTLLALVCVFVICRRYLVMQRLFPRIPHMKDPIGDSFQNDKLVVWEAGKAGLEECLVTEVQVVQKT


Columns and labels:
[1] = biological target: T1, hIL-3 receptor; experiment: cell-based or functional assay
[2] = biological target: T1, hIL-3 receptor; experiment: cell-based or functional assay; remark: listed apart in the source

Binder | Relative Biological Activity (AML 193 proliferation) [1] | EC50, AML 193 cell proliferation assay [2] [nM]
native human interleukin-3, (1-133)hIL-3 (ligand) MAPMTQTTSLKTSWVNCSNMIDEIITHLKQPPLPLLDFNNLNGEDQDILMENNLRRPNLEAFNRAVKSLQNASAIESILKNLLPCLPLATAAPTRHPIHIKDGDWNEFRRKLTFYLKTLENAQAQQTTLSLAIF | 1 EC50 (1-133)hIL-3 / EC50 mutant | 0.0302
pMON13390 polypeptide (ligand) MAYPETDYKDDDDKNCSIMIDEIIHHLKRPPNPLLDPNNLNSEDMDILMERNLRTPNLLAFVRAVKHLENASGIEAILRNLQPCLPSATAAPSRHPIIIKAGDWQEFREKLTFYLVTLEQAQEQQ | 20 EC50 (1-133)hIL-3 / EC50 mutant | –
